For this test, the target named is Met receptor on cells (A549, MDA-MB-435, BxPC3) (UniProt P08581). Description: cell-based or functional assay.
Sequence of UniProt P08581 (P08581 25-1390 limits assumed): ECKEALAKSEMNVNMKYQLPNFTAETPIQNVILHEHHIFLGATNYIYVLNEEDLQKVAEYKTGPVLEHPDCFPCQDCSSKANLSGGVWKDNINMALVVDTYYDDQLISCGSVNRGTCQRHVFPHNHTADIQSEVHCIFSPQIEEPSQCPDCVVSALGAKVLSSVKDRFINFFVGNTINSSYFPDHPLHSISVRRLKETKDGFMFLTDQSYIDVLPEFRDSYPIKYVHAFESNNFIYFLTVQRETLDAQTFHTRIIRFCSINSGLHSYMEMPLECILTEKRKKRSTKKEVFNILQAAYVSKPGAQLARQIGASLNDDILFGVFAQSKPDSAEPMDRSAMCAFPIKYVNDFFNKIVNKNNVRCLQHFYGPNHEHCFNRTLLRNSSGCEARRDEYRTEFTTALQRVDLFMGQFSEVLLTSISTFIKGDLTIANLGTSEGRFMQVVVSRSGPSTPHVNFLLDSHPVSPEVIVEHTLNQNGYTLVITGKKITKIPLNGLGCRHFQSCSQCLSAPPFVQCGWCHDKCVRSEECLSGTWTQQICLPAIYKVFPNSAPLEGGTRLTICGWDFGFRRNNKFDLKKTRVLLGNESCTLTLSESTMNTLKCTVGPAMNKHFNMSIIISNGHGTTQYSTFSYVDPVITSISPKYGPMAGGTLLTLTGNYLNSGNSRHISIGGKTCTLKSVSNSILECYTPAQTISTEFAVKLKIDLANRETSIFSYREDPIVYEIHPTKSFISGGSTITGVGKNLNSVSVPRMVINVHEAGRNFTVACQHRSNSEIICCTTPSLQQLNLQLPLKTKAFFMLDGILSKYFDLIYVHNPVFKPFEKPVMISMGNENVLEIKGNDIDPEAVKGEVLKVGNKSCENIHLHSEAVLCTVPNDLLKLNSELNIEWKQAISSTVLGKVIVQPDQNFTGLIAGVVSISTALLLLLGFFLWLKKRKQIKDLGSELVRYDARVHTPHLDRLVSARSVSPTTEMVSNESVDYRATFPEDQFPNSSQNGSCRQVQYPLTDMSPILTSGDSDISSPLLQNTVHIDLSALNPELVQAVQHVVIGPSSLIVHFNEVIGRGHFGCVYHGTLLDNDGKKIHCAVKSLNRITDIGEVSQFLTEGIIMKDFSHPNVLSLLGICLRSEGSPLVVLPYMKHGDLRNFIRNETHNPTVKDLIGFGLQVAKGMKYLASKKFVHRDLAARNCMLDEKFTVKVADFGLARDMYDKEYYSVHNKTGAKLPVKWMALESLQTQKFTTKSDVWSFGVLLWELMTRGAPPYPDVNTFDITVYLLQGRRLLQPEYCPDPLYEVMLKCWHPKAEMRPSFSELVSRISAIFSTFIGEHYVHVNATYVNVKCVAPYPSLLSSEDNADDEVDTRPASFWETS

Consider “HGF G621A (two-chain full length HGF mutant) (from UniProt P14210 32-494; P14210 495-728) (ligand)”, for which the migration of MDA-MB435 cells (transwell, 1 nM), percent of wildtype HGF (% of wildtype activity) is 60 to 80.

In turn, “HGF I699A (two-chain full length HGF mutant) (from UniProt P14210 32-494; P14210 495-728) (ligand)” came in with a migration of MDA-MB435 cells (transwell, 1 nM), percent of wildtype HGF (% of wildtype activity) of 60 to 80.

Turning to “HGF T620A (two-chain full length HGF mutant) (from UniProt P14210 32-494; P14210 495-728) (ligand)”, the migration of MDA-MB435 cells (transwell, 1 nM), percent of wildtype HGF (% of wildtype activity) was in the range of 60 to 80.

“HGF P537A (two-chain full length HGF mutant) (from UniProt P14210 32-494; P14210 495-728) (ligand)” displayed a migration of MDA-MB435 cells (transwell, 1 nM), percent of wildtype HGF (% of wildtype activity) of 60 to 80.

In the case of “HGF Y619A (two-chain full length HGF mutant) (from UniProt P14210 32-494; P14210 495-728) (ligand)”, the migration of MDA-MB435 cells (transwell, 1 nM), percent of wildtype HGF (% of wildtype activity) was in the range of 60 to 80.

“HGF N701A (two-chain full length HGF mutant) (from UniProt P14210 32-494; P14210 495-728) (ligand)” registered a migration of MDA-MB435 cells (transwell, 1 nM), percent of wildtype HGF (% of wildtype activity) of 60 to 80.

Take “HGF R514A (two-chain full length HGF mutant) (from UniProt P14210 32-494; P14210 495-728) (ligand)”: the migration of MDA-MB435 cells (transwell, 1 nM), percent of wildtype HGF (% of wildtype activity) fell in the range of 60 to 80.

For the origin of these results see patent publication US20050037431A1.
